What all share (test): two-hybrid library CCNG1;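 note: natural log of median RNA to DNA barcode read ratio; higher means stronger binding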
The target of one experiment is T1, 4H575-bH.
T1 chain: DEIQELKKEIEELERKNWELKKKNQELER

In a further experiment the target is T2, 4H683-bH.
T2 chain: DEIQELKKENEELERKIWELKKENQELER

Another experiment has as its target T3, 4H855-bH.
T3 chain: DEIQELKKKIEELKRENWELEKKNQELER

The target in another experiment is T4, 4H797-bH.
T4 chain: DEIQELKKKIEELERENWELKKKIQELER

Another experiment addresses T5, 4H346-bH.
T5 chain: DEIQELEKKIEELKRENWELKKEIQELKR

The target in the next experiment is T6, 4H953-bH.
T6 chain: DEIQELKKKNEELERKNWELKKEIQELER

The next experiment deals with T7, 4H1831-bH.
T7 chain: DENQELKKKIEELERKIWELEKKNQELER

The target of the next experiment is T8, 4H4073-bH.
T8 chain: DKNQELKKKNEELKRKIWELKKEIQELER

The next experiment has as its target T9, 4H2586-bH.
T9 chain: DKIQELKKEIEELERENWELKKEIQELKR

Another experiment concerns the target T10, O4.
T10 chain: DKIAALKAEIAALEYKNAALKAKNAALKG

In a further experiment the target is T11, 4H780-bH.
T11 chain: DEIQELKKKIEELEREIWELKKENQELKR

Another experiment addresses T12, 4H918-bH.
T12 chain: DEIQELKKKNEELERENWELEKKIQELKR

For the next experiment, the target named is T13, 4H2702-bH.
T13 chain: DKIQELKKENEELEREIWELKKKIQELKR

A further experiment has as its target T14, 4H2627-bH.
T14 chain: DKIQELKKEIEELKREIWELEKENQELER

The next experiment concerns the target T15, 4H3010-bH.
T15 chain: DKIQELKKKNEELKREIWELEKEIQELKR

The target in another experiment is T16, 4H626-bH.
T16 chain: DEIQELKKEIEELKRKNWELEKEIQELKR

Another experiment addresses T17, 4H3427-bH.
T17 chain: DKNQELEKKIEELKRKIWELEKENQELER

For the next experiment, the target named is T18, 4H968-bH.
T18 chain: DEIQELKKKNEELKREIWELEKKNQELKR

Another experiment concerns the target T19, 4H457-bH.
T19 chain: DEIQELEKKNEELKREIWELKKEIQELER

The next experiment has as its target T20, 4H3112-bH.
T20 chain: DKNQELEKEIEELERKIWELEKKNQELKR

In the next experiment the target is T21, 4H754-bH.
T21 chain: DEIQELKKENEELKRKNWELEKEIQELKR

For the next experiment, the target named is T22, 4H2673-bH.
T22 chain: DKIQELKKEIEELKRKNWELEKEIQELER

In the next experiment the target is T23, 4H3926-bH.
T23 chain: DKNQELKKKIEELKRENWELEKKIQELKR

For DENQELKKKIEELERKIWELEKKNQELER [4H1831-bH], the interaction score was -1.81 in the experiment with 4H575-bH; -0.934 in the experiment with 4H683-bH; -0.184 with 4H855-bH; -1.12 with 4H797-bH; 0.11 with 4H346-bH; -0.749 in the experiment with 4H953-bH. The interaction score in the experiment with 4H1831-bH is -0.611; with 4H4073-bH it was -0.216; with 4H2586-bH it was -1.54; in the experiment with O4 it was -1.48; with 4H780-bH it was 0.511; with 4H918-bH, -0.221. Moreover, the interaction score with 4H2702-bH is 0.297; with 4H2627-bH it was 1.87; in the experiment with 4H3010-bH it was 1.32; in the experiment with 4H626-bH, 1.02; with 4H3427-bH, 0.584; with 4H968-bH it was -2.37. The interaction score with 4H457-bH was 0.724; with 4H3112-bH it was -0.582; in the experiment with 4H754-bH, 0.0674; in the experiment with 4H2673-bH, 0.349; with 4H3926-bH, -0.549.

The values above are taken from article PMC10397247.
